Laboratory results published in patent publication US20230235047A1 (Innovent, published 2023).

Columns and labels:
[1] = molecular target: T1, human Claudin18.2 protein (P50251802, GenScript) (human, UniProt P56856-2 1-261, limits assumed); assay: SPR (Biacore T200), human Claudin18.2 amine-coupled to the chip, antibody 0-100 nM in the mobile phase, 1:1 model
T1 construct: also called human CLDN18.2
Method: According to the manufacturer's instructions, human Claudin18.2 (GenScrip, P50251802) was coupled to the surface of a CMS chip (GE Healthcare, 29-1496-03) using the amino coupling kit (GE Healthcare, BR-1006-33), and the remaining activation sites were blocked by injection of 1 M ethanolamine after coupling. According to the manufacturer's instructions, the binding and dissociation between the antigen on the chip surface and antibodies in the mobile phase were determined by Biacore (GE Healthcare, T200) to obtain affinity and kinetic constants. The antibodies (0-100 nM) after gradient dilution flowed over the chip surface in an order from low to high concentrations, with the binding time of 180 s and the dissociation time of 600 s. Finally, the chip was regenerated using 10 mM Glycine pH 1.5 (GE Healthcare, BR-1003-54). Kinetic analysis of the data results were performed using Biacore T200 analysis software with a 1:1 binding model.

[2] = molecular target: T2, human CLDN18.1 on cells (CHO-hCLDN18.1) (human, UniProt P56856 1-261); assay: flow cytometry, hybridoma supernatant on CHO-hCLDN18.1
T2 construct: whole, on cells; also called human Claudin18.1

| Binder | Kd [1] | koff [1] | kon [1] | binding result [2] |
| --- | --- | --- | --- | --- |
| Hz51H10 (antibody, human IgG1, kappa, V domains shown) VH: QVQLVQSGAEVKKPGASVKVSCKASGYTFTKYIIQWVRQAPGQRLEWMGYINPYNDDTKYNEKFKGRVTITRDTSASTAYMELSSLRSEDMAVYYCARTYYGNSFPNWGQGTLVTVSS VL: not shown | 1.94 nM | 0.000631 s⁻¹ | 325000 M⁻¹ s⁻¹ | – |
| 38F8 (antibody secreted by the hybridoma, culture supernatant) (antibody, V domains shown) VH: EVQLVESGGGLVKPGGSLKLSCAASGFSFSDYGMHWVRQAPEKGLEWIAYINSGSRTLYYADTVKGRFTISRDNAKNTLFLQMTSLRSEETAMYYCTRNAYYGNAMDYWGQGTSVTVSS VL: DIQMTQSPSSLTVTAGEKVTMSCKSSQSLLNSGNQRNYLTWYQQIPGQPPKLLIYWSSTRGSGVPDRFTGSGSGTDFTLTISSVQAEDLAVYFCQNVYYYPFTFGSGTRLEVK | – | – | – | no binding |
| Hz46F6 (antibody, human IgG1, kappa, V domains shown) VH: QVQLQESGPGLVKPSETLSLTCTVSGFSLTDYGVSWIRQPPGKGLEWIGVMWGGGNTYYNSALKSRVTISVDTSKNQFSLKLSSVTAADTAVYYCARQRYGGNAMDYWGQGTLVTVSS VL: DIVMTQSPDSLAVSLGERATINCKSSQSLLNSGNQRNYLTWYQQKPGQPPKLLIYWASTRESGVPDRFSGSGSGTDFTLTISSLQAEDVAVYYCQNSYFYPFTFGGGTKVEIKR | 1.03 nM | 0.00015 s⁻¹ | 147000 M⁻¹ s⁻¹ | – |
| Hz59C1 (antibody, human IgG1, kappa, V domains shown) VH: QVQLQESGPGLVKPSETLSLTCTVSGYSITSGYGWNWIRQPPGKGLEWIGYIHFSGSTNYNPSLKSRVTISVDTSKNQFSLKLSSVTAADTAVYYCARSGKGNAMDYWGQGTLVTVSS VL: DIVMTQSPDSLAVSLGERATINCKSSQSLLNSGNQKNYLTWYQQKPGQPPKLLIYWASTRESGVPDRFSGSGSGTDFTLTISSLQAEDVAVYYCQNDYYFPFTFGGGTKVEIKR | 1.75 nM | 0.000433 s⁻¹ | 248000 M⁻¹ s⁻¹ | – |
| 14A5 (antibody secreted by the hybridoma, culture supernatant) (antibody, V domains shown) VH: QVQLKESGPGLVAPSQSLSITCSVSGFSLNSYGVGWVRQPPGKGLEWLGVIWGDGSTNYHSVLISRLSIRKDNSKSQVFLKLNSLQTDDTATYYCAMITRGNAMDYWGQGTSVTVSS VL: DIVMTQSPSSLTVTAGEKITMSCKSSQSLLNSGNQRNYLTWYQQKPGQTPKLLIYWASTRKSGVPDRFTGSGSGTDFTLTISSVQAEDLAVYSCQNNYLFPLTFGAGTKLELK | – | – | – | no binding |
| 3G3 (antibody secreted by the hybridoma, culture supernatant) (antibody, V domains shown) VH: QVQLQQSGPQLVRPGASVKISCKASGYSFTTYWMHWVKQRPGQGLEWIGLIDPSDSETRLNQKFKDKATLTVDKSSSTAYMRLSSPTSEDSAVYYCASNRWLLGWGQGTLVTVSS VL: DIQMIQSPSSLTVTAGEKVTMSCKSSQSLLNSGNQKNYLTWYQQKPGQPPKLLIYWASTRESGVPDRFTGSGSGTDFTLTISSVQTEDLAVYYCQNDYSYPLTFGAGTKLEIK | – | – | – | no binding |
| 69H9 (antibody secreted by the hybridoma, culture supernatant) (antibody, V domains shown) VH: EVQLQQSGPELMKPGASVKISCKATGYSFSSYNIHWVKQSHGKSLEWIGYIAPFNGDSRYNQKFKGKATVTVDKSSSTAYMHLSSLTSEDSAVYYCGRLNRGNSLDYWGQGTSLTVSS VL: DIVMTQSPSSLTVTAGEKVTMSCKSSQSLFNSGNQRNYLTWYQQKPGQPPKLLIYWASTRESGVPDRFTGSGSGTDFTLTISSVQAEDLAFYYCQNNYIYPLTFGAGTKLELK | – | – | – | no binding |
| 51H10 (antibody secreted by the hybridoma, culture supernatant) (antibody, V domains shown) VH: EVQLQQSVPELVKPGASVRMSCKASGYTFTKYIIQWVKQKPGQGLEWIAYINPYNDDTKYNEKFKGKATLTSDKSASTAYMELSSLTSEDSAVYYCATTYYGNSFPNWGQGTLVTVSA VL: DIVMTQSPSSLTVTAGERVTMTCKSSQSLLNSGNQKNYLTWYQQKPGQPPKLLIYWASTRESGVPDRFTGSGSGTDFTLTISSLQSEDLAVYFCQNDYSFPFTFGSGTKLEIK | – | – | – | no binding |
| 46F6 (antibody secreted by the hybridoma, culture supernatant) (antibody, V domains shown) VH: QVQLKESGPGLVAPSQSLSITCTVSGFSLTDYGVSWIRQPPGKGLEWLGVMWGGGNTYYNSALKSRLSISKDNSKSQVFLKMNSLQSDDTAMYYCAKQRYGGNAMDYWGQGTSVTVSS VL: DIQMTQSPSSLTVTAGEKVTMSCKSSQSLLNSGNQRNYLTWYQQIPGQPPKLLIYWASTRESGVPNRFTGSGSGAEFTLTISSVQTEDLAVYYCQNSYFYPFTFGAGTKLELK | – | – | – | no binding |

More lines, now with the values ahead:

| Kd [1] | koff [1] | kon [1] | binding result [2] | Binder |
| --- | --- | --- | --- | --- |
| – | – | – | no binding | HB37A6 (antibody secreted by the hybridoma, culture supernatant) (antibody, V domains shown) VH: EVQLLDSGGGLVQPGGSLRLSCAASGFTFSSYVMSWVRQAPGKGLNWVSTISHSGGSTYYADSVKGRFTISRDNSKNTLYLQMNSLRAEDTAVYYCAIDAPYYDILTGYRYWGQGTLVTVSS VL: not shown |
| 0.314 nM | 9.97e-05 s⁻¹ | 318000 M⁻¹ s⁻¹ | – | Hz38F8 (antibody, human IgG1, kappa, V domains shown) VH: EVQLVESGGGLVQPGGSLRLSCAASGFSFSDYGMHWVRQAPGKGLEWVSYINSGSRTLYYADTVKGRFTISRDNAKNSLYLQMNSLRDEDTAVYYCARNAYYGNAMDYWGQGTLVTVSS VL: DIVMTQSPDSLAVSLGERATINCKSSQSLLNSGNQRNYLTWYQQKPGQPPKLLIYWSSTRGSGVPDRFSGSGSGTDFTLTISSLQAEDVAVYYCQNVYYYPFTFGQGTRLEIKR |
| 0.49 nM | 0.000208 s⁻¹ | 424000 M⁻¹ s⁻¹ | – | Hz14A5 (antibody, human IgG1, kappa, V domains shown) VH: QVQLQESGPGLVKPSETLSLTCTVSGFSLNSYGVGWIRQPPGKGLEWIGVIWGDVSTNYHSVLISRVTISKDTSKNQVSLKLSSVTAADTAVYYCARITRGNAMDYWGQGTLVTVSS VL: DIVMTQSPDSLAVSLGERATINCKSSQSLLNSGNQRNYLTWYQQKPGQPPKLLIYWASTRKSGVPDRFSGSGSGTDFTLTISSLQAEDVAVYYCQNNYLFPLTFGGGTKVEIKR |
| 9.84 nM | 0.00114 s⁻¹ | 116000 M⁻¹ s⁻¹ | – | Hz25C7 (antibody, human IgG1, kappa, V domains shown) VH: EVQLVESGGGLVQPGGSLRLSCAASGFTFSDYGMAWVRQAPGKGLEWVAFINNLAYSIYYVDTVTGRFTISRDNAKNSLYLQMNSLRAEDTAVYYCARFTTGNVMDYWGQGTLVTVSS VL: DIVMTQSPDSLAVSLGERATINCKSSQSLLQGGNQKNYLTWYQQKPGQPPKLLIYWSSTRESGVPDRFSGSGSGTDFTLTISSLQAEDVAVYYCQNSYSYPLTFGGGTKVEIKR |
| 14.2 nM | 0.000799 s⁻¹ | 56500 M⁻¹ s⁻¹ | – | Hz3G3 (antibody, human IgG1, kappa, V domains shown) VH: QVQLVQSGAEVKKPGASVKVSCKASGYSFTTYWMHWVRQAPGQGLEWMGLIDPSDSETRLNQKFKDRVTMTVDTSTSTVYMELSSLRSEDTAVYYCASNRWLLGWGQGTLVTVSS VL: DIVMTQSPDSLAVSLGERATINCKSSQSLLNSGNQKNYLTWYQQKPGQPPKLLIYWASTRESGVPDRFSGSGSGTDFTLTISSLQAEDVAVYYCQNDYSYPLTFGQGTKLEIKR |
| – | – | – | no binding | 25C7 (antibody secreted by the hybridoma, culture supernatant) (antibody, V domains shown) VH: EVMLVESGGGLVQPGGSRKLSCAASGFTFSDYGMAWVRQAPGKGPEWVAFINNLAYSIYYVDTVTGRFTISRENAKDTLYLEMSSLRSEDTALYYCARFTTGNVMDYWGQGTSVTVSS VL: DIVMTQSPSSLTVTAGEKVTMTCKSSQSLLNGGNQKNYLTWYQQKPGQPPKLLIYWSSTRESGVPDRFTGSGSGTDFTLTITSVQAEDLAVYYCQNSYSYPLTFGSGTKLELK |
| – | – | – | no binding | 59C1 (antibody secreted by the hybridoma, culture supernatant) (antibody, V domains shown) VH: QVQLKESGPDLVKPSQSLSLTCTVTGYSITSGYGWNWIRQFPGNKLEWMGYIHFSGSTNYNPSLKSRISITRDTSKNQFFLQLNSVTTEDTATYYCARSGKGNAMDYWGQGTSVTVSS VL: DIQMTQSPSSLTVTAGEKVTMSCKSSQSLLNSGNQKNYLTWYQQKPGQPPKLLIYWASTRESGVPDRFTGSGSGTDFTLTVINMQAEDLALYYCQNDYYFPFTFGSGTKLEIK |
